{
  "source": "patent US6150090",
  "molecular_target": "IgNF-A (NF-A1), ubiquitous octamer-binding protein (Homo sapiens) (UniProt P14859)",
  "sequence (P14859 whole entry, the tested form may be a part)": "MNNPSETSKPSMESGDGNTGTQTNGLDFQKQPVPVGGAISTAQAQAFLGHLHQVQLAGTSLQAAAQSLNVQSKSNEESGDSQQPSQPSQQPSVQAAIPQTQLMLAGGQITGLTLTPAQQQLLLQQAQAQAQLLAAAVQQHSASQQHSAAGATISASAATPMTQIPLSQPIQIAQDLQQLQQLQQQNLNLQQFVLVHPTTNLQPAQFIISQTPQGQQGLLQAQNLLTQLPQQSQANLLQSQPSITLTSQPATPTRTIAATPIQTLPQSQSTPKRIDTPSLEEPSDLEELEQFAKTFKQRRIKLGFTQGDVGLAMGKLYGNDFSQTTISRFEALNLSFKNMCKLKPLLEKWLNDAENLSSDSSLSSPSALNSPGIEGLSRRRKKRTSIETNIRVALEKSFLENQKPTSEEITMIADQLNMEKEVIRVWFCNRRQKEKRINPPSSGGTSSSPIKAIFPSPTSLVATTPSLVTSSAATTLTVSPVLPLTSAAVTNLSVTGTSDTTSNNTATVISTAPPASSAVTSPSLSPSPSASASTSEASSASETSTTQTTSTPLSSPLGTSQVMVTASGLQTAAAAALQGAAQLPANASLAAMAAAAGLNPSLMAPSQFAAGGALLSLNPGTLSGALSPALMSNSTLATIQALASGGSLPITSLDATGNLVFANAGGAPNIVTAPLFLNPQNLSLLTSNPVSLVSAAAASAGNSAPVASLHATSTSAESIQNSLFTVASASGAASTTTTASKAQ",
  "test": "EMSA",
  "conditions": "affinity over heterologous plasmid DNA; poly(dI-dC) carrier; DNase I footprint -72 to -52",
  "data": [
    {"substance": "MOPC41 V kappa promoter PvuII-SfaNI fragment", "values": [
      {"measurement": "binding signal", "result": "> 10000", "unit": "fold"}
    ]}
  ]
}
